Laboratory results: patent US20240101674A1 (OTTIMO PHARMA, published 2024)
Positions count from the first letter of the chain named. In names and notes the source's numbering stands.

T1: rhesus VEGFR2 protein (rhesus monkey)
T1 construct: Recombinant protein used in ELISA; also called rhesus monkey VEGFR2; rh VEGFR2
T1 chain: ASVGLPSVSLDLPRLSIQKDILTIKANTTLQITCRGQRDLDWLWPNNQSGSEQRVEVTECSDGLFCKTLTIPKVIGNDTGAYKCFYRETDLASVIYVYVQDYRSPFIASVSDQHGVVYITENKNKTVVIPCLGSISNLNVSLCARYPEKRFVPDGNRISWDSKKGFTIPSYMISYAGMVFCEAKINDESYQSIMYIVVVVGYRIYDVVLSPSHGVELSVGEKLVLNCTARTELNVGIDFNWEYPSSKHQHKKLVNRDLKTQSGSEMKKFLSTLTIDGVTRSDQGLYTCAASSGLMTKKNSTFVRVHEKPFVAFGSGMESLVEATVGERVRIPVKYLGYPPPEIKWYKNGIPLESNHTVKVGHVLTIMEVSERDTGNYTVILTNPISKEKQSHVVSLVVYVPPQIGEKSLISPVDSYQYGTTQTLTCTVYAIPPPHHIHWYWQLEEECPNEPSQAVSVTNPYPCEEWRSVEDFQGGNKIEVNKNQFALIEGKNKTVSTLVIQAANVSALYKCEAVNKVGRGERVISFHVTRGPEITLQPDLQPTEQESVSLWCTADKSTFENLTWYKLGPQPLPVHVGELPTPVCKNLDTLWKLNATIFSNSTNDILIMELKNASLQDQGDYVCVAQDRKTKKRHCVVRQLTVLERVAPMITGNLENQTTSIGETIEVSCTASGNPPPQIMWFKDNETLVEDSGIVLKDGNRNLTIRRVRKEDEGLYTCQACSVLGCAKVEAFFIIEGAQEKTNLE

T2: cynomolgus monkey PD1 human Fc tagged recombinant protein (cynomolgus monkey, UniProt Q15116 25-170 (human entry), limits assumed)
T2 construct: also called cyno PD1-Fc; cyno PD1; not shown: human Fc tag
T2 chain: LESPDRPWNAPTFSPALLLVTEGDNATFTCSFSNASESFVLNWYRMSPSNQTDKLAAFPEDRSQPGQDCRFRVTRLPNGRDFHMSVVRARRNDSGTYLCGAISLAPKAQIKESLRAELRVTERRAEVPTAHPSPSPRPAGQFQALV

B1: MAB04 IgG1 null (antibody, V domains shown)
VH: EVQLVESGGGLVQPGGSLRLSCAASGFTFSSYMMSWVRQAPGKGLEWVATISGGGANTYYPDSVKGRFTISRDNAKNSLYLQMNSLRAEDTAVYYCARQLYYFDYWGQGTTVTVSS
VL: DIQMTQSPSSLSASVGDRVTITCLASQGIGPWLSWYQQKPGKAPKLLIYTATSLADGVPSRFSGSGSGTDFTLTISSLQPEDFATYYCQQVSVTPFTFGGGTKVEIK
notes: Human IgG1 null format (L234A, L235A, G237A) with human C kappa; only variable domains are tied to the clone
B2: MAB06 IgG1 null (antibody, V domains shown)
VH: B1 VH
VL: B1 VL with G28E, I29S, P31I
notes: as for B1
B3: MAB05 IgG1 null (antibody, V domains shown)
VH: B1 VH
VL: B1 VL with G28P, I29L, P31I
notes: as for B1
B4: MAB02B03 IgG1 null (antibody, V domains shown)
VH: B1 VH
VL: B1 VL with G28P, I29L, P31I, S92Y, V93S, T94I, F96W
notes: as for B1
B5: MAB05G03 IgG1 null (antibody, V domains shown)
VH: B1 VH
VL: B1 VL with G28T, P31T, S34T, S92A, V93E, T94L, T97G
notes: as for B1
B6: MAB05E08 IgG1 null (antibody, V domains shown)
VH: B1 VH
VL: B1 VL with G28T, P31T, S34T
notes: as for B1
B7: MAB01 IgG1 null (antibody, V domains shown)
VH: B1 VH
VL: B1 VL with S92A, V93E, T94L, T97G
notes: as for B1
B8: MAB02D08 IgG1 null (antibody, V domains shown)
VH: B1 VH
VL: B1 VL with G28E, I29S, P31I, S92Y, V93S, T94I, F96W
notes: as for B1
B9: MAB02A03 IgG1 null (antibody, V domains shown)
VH: B1 VH
VL: B1 VL with P8S, S92Y, V93S, T94I, F96W
notes: as for B1
B10: hMAb005 IgG1 null (antibody, V domains shown)
VH: B1 VH
VL: B1 VL with G28T, P31T, S34T, S92Y, V93S, T94I, F96W
notes: Tested as human IgG1 null (L234A, L235A, G237A) with human C kappa; also called humanized MAb005
B11: MAB02 IgG1 null (antibody, V domains shown)
VH: B1 VH
VL: B1 VL with G28P, I29L, P31I, S92A, V93E, T94L, T97G
notes: as for B1
B12: MAB06.8.2 IgG1 null (antibody, V domains shown)
VH: B1 VH with M33L, A56S, T58K, P61V, L100V
VL: B1 VL with L24R, G28E, I29S, P31I, T50A, T52S, A55Q, D56S
notes: Human IgG1 null format; only variable domains are tied to the clone
B13: MAB06.8.6 IgG1 null (antibody, V domains shown)
VH: B1 VH with M33L, A56S, T58K, P61V, F103Y
VL: B1 VL with L24R, G28E, I29S, P31I, T50A, T52S, A55Q, D56S
notes: as for B12
B14: hMAb005 Fab (Fab, V domains shown)
VH: B1 VH
VL: B1 VL with G28T, P31T, S34T, S92Y, V93S, T94I, F96W
notes: Human IgG1-kappa Fab, periplasmically expressed in E. coli, detected via c-myc; also called hMAb005 v-domains expressed as human IgG1 Fab; positive control hMAb005 Fab
B15: MAB02D08 Fab (Fab, V domains shown)
VH: B1 VH
VL: B1 VL with G28E, I29S, P31I, S92Y, V93S, T94I, F96W
notes: Library-derived clone screened as human IgG1-kappa Fab in E. coli periplasmic extract; also called MAB02D08 (periprep Fab)
B16: MAB02A03 Fab (Fab, V domains shown)
VH: B1 VH
VL: B1 VL with P8S, S92Y, V93S, T94I, F96W
notes: Library-derived clone screened as human IgG1-kappa Fab in E. coli periplasmic extract; also called MAB02A03 (periprep Fab)
B17: MAB02B03 Fab (Fab, V domains shown)
VH: B1 VH
VL: B1 VL with G28P, I29L, P31I, S92Y, V93S, T94I, F96W
notes: Library-derived clone screened as human IgG1-kappa Fab in E. coli periplasmic extract; also called MAB02B03 (periprep Fab)
B18: MAB05E08 Fab (Fab, V domains shown)
VH: B1 VH
VL: B1 VL with G28T, P31T, S34T
notes: Library-derived clone screened as human IgG1-kappa Fab in E. coli periplasmic extract; also called MAB05E08 (periprep Fab)
B19: MAB05G03 Fab (Fab, V domains shown)
VH: B1 VH
VL: B1 VL with G28T, P31T, S34T, S92A, V93E, T94L, T97G
notes: Library-derived clone screened as human IgG1-kappa Fab in E. coli periplasmic extract; also called MAB05G03 (periprep Fab)

Target: T1, rhesus VEGFR2 protein
Experiment: direct titration ELISA, IgG1 null on VEGFR2 protein (FIG. 3B)

Row | binding result | Binder
1 | binds | B1
2 | binds | B2
3 | binds | B3
4 | binds | B4
5 | binds | B5
6 | binds | B6
7 | binds | B7
8 | binds | B8
9 | binds | B9

Each binder was assayed against T3, human VEGFR2 protein (human, UniProt P35968 20-764) in the same assay as above.
T3 construct: Recombinant protein used in ELISA; also called hu VEGFR2; KDR

Row | binding result | Binder
10 | binds | B1
11 | binds | B2
12 | binds | B3
13 | binds | B4
14 | binds | B5
15 | binds | B6
16 | binds | B7
17 | binds | B8
18 | binds | B9

The binders below were run against T4, human PD1 human Fc tagged recombinant protein (human, UniProt Q15116 25-170) (assay: direct titration ELISA, IgG1 null on coated PD1-Fc (FIG. 3A)).
T4 construct: also called human PD1-Fc; hu PD1; not shown: human Fc tag
Protocol: (§1) Binding and cross-reactivity of the lead panel to the recombinant proteins was initially assessed by binding ELISA. The human PD1 human Fc tagged recombinant protein and the cynomolgus monkey PD1 human Fc tagged recombinant protein were coated to the surface of MaxiSorp™ flat-bottom 96 well plate at 1 μg/ml. The purified Fab or IgG samples were titrated in two fold serial dilutions starting from 500 nM to 0.98 nM and allowed to bind to the coated antigens. The Fabs were detected using mouse anti-c-myc antibody followed by donkey anti-mouse IgG conjugated to horseradish peroxidase. The IgGs were detected using the mouse anti-human IgG conjugated to horseradish peroxidase. Binding signals were visualized with 3,3′,5,5′-Tetramethylbenzidine Substrate Solution (TMB) and the absorbance measured at 450 nm.

T4 sequence (Q15116 25-170 limits assumed): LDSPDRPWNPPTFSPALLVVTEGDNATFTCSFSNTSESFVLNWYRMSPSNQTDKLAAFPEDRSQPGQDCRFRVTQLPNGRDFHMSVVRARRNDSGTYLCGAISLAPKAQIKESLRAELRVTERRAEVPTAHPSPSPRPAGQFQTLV

Row | binding result | Binder
19 | binds | B10
20 | binds | B1
21 | binds | B2
22 | binds | B3
23 | binds | B7
24 | binds | B11

Target: T2, cynomolgus monkey PD1 human Fc tagged …
Experiment: as above
Protocol: as §1

Row | binding result | Binder
25 | binds | B10
26 | binds | B1
27 | binds | B2
28 | binds | B3
29 | binds | B4
30 | binds | B5
31 | binds | B6
32 | binds | B7
33 | binds | B8
34 | binds | B9
35 | binds | B11

Each binder was assayed against T3, human VEGFR2 protein (assay: direct titration ELISA, IgG1 null on VEGFR2 protein (FIG. 12C)).

Row | binding result | Binder
36 | binds | B12
37 | binds | B13

Each binder was assayed against T4, human PD1 human Fc tagged recombinant … (assay: periprep Fab direct binding ELISA (FIG. 1)).

Row | binding result | Binder
38 | binds | B14

Target: T1, rhesus VEGFR2 protein
Experiment: periprep Fab direct binding ELISA (FIG. 1)

Row | binding result | Binder
39 | binds | B15
40 | binds | B16
41 | binds | B17
42 | binds | B18
43 | binds | B19

What follows are binders tested against T3, human VEGFR2 protein (assay: periprep Fab direct binding ELISA (FIG. 1)).

Row | binding result | Binder
44 | binds | B15
45 | binds | B16
46 | binds | B17
47 | binds | B18
48 | binds | B19

Target: T2, cynomolgus monkey PD1 human Fc tagged …
Experiment: periprep Fab direct binding ELISA (FIG. 1)

Row | binding result | Binder
49 | binds | B15
50 | binds | B14
51 | binds | B16
52 | binds | B17
53 | binds | B18
54 | binds | B19

What follows are binders tested against T5, biotinylated human PD1-His/AviTag (human, UniProt Q15116 25-170, limits assumed, biotinylated) (assay: Alphascreen epitope competition, Fab periprep; competitor hMAb005 IgG1 null on biotinylated human PD1-His/AviTag).
T5 construct: also called human PD1 protein (Alphascreen); not shown: His/AviTag
Protocol: FIG. 2A-FIG. 2B. Epitope competition analysis of Fab proteins in Alphascreen Anti-PD1 clones were expressed as Fab in E. coli and peripreps were applied in an epitope competition assay using Alphascreen technology.
The AlphaScreen assay (Perkin Elmer) was performed in a 25 μl final volume in 384-well white microtiter plates (Greiner). The reaction buffer contained 1×PBS pH 7.3 (Oxoid, Cat. nr. BR0014G) and 0.05% (v/v) Tween® 20 (Sigma, Cat. nr. P9416). Periprep samples diluted in reaction buffer were incubated with biotinylated human PD1-His/AviTag at 0.6 nM final concentration for 20 minutes at room temperature. […] The emission of light was measured in the EnVision multilabel plate reader (Perkin Elmer) and analysed using the EnVision manager software. Values were reported as Counts Per Second (CPS) and corrected for crosstalk. Signal reduction percentages were calculated relative to the irrelevant sample.

T5 sequence (Q15116 25-170 limits assumed): as above

Row | percentage signal reduction of hMAb005/PD1 interaction [%] | Binder
55 | > 75 | B15
56 | 75 | B16
57 | > 75 | B17
58 | > 75 | B18
59 | > 75 | B19
